This is an account of results in publication PMC11739670.

In test [1] the target is MHCI-related protein 1 (MR1) with β2m, loaded with 5-(2-oxopropylideneamino)-6-d-ribitylaminouracil (human) (UniProt Q95460). In words: SPR; BIAcore T200, CM5 chip with streptavidin; biotinylated pMHCI, MR1 or CD1 captured; serial dilution of CD8-Fc fusion injected; 25°C, PBS with 0.005% Tween 20; steady-state responses, 1:1 Langmuir fit.
For test [2], the target named is MHCI-related protein 1 (MR1) with β2m, loaded with 5-formyl salicylic acid (human) (UniProt Q95460). The description is as above.
Test [3] has as its target MHCI-related protein 1 (MR1) with β2m, loaded with 6-formylpterin (human) (UniProt Q95460). The description is as above.
The target in test [4] is MHCI-related protein 1 (MR1) with β-2 microglobulin, biotinylated, loaded with model ligands (UniProt Q95460). In words: SPR; biotinylated ligands (pMHCI, MR1, CD1) captured on streptavidin coupled to a CM5 chip; serial dilution of each CD8-Fc fusion injected; steady-state responses, 1:1 Langmuir fit; BIAcore T200, 25°C, PBS with 0.005% Tween 20. Background: In SPR one partner is held on a chip, and binding of the other changes the refractive index at the surface.

The target of test [5] is HLA-A*03:01 with peptide […]. In words: SPR.
In test [6] the target is HLA-A*24:02 peptide-MHC class I (biotinylated pMHCI). In words: SPR; biotinylated ligands (pMHCI, MR1, CD1) captured on streptavidin coupled to a CM5 chip; serial dilution of each CD8-Fc fusion injected; steady-state responses, 1:1 Langmuir fit; BIAcore T200, 25°C, PBS with 0.005% Tween 20.

Values joined by “and” are separate entries in the source; they are usually repeats but may differ in a detail not shown here. Equal entries are not always repeated.

Consider “soluble human CD8αα-Fc homodimer (from UniProt P01732 22-182) (Fc fusion)”, for which the equilibrium dissociation constant (Kd) – broadly, the concentration at which binding is half-saturated – in test [1] is 248 µM and 274 µM; in test [2], 222 µM and 236 µM; in test [3], 248 µM and 280 µM; in test [4], 250 µM.

In the case of “soluble human CD8αβ-Fc heterodimer (from UniProt P01732 22-182; P10966 22-170) (Fc fusion)”, the Kd in test [5] turned out to be 127 µM; in test [6] it was 230 µM.
